Data reported in US11491212.

B1: FIXa-Y155F/R318Y/T343R/R403E/E410N (protein)
chain 1: not shown
chain 2: not shown
B2: FIXa-R338E/T343R/R403E/E410N (protein)
chain 1: not shown
chain 2: not shown
B3: FIXa-Y155F/K247N/N249S/R338E/T343R/R403E (protein)
chain 1: not shown
chain 2: not shown
B4: FIXa-K247N/N249S/R338E/R403E/E410N (protein)
chain 1: not shown
chain 2: not shown
B5: FIXa-K247N/N249S/R318Y/T343R/R403E (protein)
chain 1: not shown
chain 2: not shown
B6: FIXa-Y155F/K247N/N249S/R338E/T343R/E410N (protein)
chain 1: not shown
chain 2: not shown
B7: FIXa-K247N/N249S/R338E/T343R/E410N (protein)
chain 1: not shown
chain 2: not shown
B8: FIXa-Y155F/R318Y/R338E/T343R/R403E (protein)
chain 1: not shown
chain 2: not shown
B9: FIXa-Y155F/K247N/N249S/R338E/R403E/E410N (protein)
chain 1: not shown
chain 2: not shown
B10: FIXa-R318Y/R338E/T343R/R403E (protein)
chain 1: not shown
chain 2: not shown
B11: FIXa-K247N/N249S/R318Y/T343R/E410N (protein)
chain 1: not shown
chain 2: not shown
B12: FIXa-Y155F/R318Y/R338E/T343R/E410N (protein)
chain 1: not shown
chain 2: not shown
B13: FIXa-Y155F/K247N/N249S/R318Y/T343R/E410N (protein)
chain 1: not shown
chain 2: not shown
B14: FIXa-Y155F/K247N/N249S/T343R/R403E/E410N (protein)
chain 1: not shown
chain 2: not shown

biological target: Factor X (FX), P00742
Sequence (P00742 whole entry, looked up): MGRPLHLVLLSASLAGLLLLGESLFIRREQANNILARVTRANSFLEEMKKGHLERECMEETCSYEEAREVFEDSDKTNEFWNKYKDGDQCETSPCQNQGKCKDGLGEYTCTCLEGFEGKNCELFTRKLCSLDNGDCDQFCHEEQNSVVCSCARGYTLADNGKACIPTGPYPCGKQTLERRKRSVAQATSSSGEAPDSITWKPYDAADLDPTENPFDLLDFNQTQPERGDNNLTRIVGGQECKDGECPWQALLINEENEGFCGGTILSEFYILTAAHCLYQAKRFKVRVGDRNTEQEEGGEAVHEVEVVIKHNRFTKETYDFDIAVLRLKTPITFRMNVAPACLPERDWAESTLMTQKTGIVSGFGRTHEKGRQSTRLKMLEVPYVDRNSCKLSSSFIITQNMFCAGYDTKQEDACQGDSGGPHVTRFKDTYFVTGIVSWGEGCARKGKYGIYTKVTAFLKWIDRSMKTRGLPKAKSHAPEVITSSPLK

| Protein | KM [µM] | kcat [s⁻¹] |
| --- | --- | --- |
| B1 | 0.034 |  |
| B2 | 0.0347 |  |
| B3 |  | 14.6 |
| B4 | 0.025 |  |
| B5 |  | 3.7 |
| B6 |  | 4.8 |
| B7 |  | 7.9 |
| B8 | 0.034 |  |
| B9 | 0.0487 |  |
| B10 | 0.0443 |  |
| B11 |  | 6.1 |
| B12 | 0.0256 |  |
| B13 |  | 8.1 |
| B14 |  | 15 |

biological target: Factor X, P00742
Sequence (P00742 whole entry, looked up): as above

| Protein | kcat/KM [M⁻¹ s⁻¹] | KM [µM] |
| --- | --- | --- |
| B1 | 2.6e+08 |  |
| B2 | 3e+08 |  |
| B3 |  | 0.0251 |
| B4 | 1.9e+08 |  |
| B5 |  | 0.105 |
| B6 |  | 0.027 |
| B7 |  | 0.0275 |
| B8 | 2.6e+08 |  |
| B9 | 1.1e+08 |  |
| B10 | 1.6e+08 |  |
| B11 |  | 0.0401 |
| B12 | 3.7e+08 |  |
| B13 |  | 0.0381 |
| B14 |  | 0.052 |
